According to patent publication US20190234935A1 (Janssen / Centocor, published 2019):

Tests used:
Assay in all cases: Retrogenix cell microarray on HEK293 cells
[1] = target: T1, GFRα3 (Retrogenix library, on HEK293 cells) (human, UniProt O60609 32-374)
T1 construct: whole, on cells
T1 sequence (looked up): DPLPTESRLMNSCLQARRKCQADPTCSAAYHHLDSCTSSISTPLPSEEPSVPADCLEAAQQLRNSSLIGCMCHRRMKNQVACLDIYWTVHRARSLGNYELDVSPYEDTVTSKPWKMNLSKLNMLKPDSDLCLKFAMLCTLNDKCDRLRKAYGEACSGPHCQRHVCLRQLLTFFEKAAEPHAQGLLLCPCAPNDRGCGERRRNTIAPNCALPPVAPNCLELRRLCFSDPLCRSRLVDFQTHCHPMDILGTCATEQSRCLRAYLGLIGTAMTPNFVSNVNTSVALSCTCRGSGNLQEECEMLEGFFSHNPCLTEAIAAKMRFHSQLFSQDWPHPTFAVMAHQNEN
Protocol: (§1) In parallel, two studies were performed at Retrogenix Ltd (Whaley Bridge, High Peak, Derbyshire, UK) using Retrogenix' Cell Microarray technology to screen for binding partners for the Fc-GDF15 fusion molecule. Two studies were performed to screen Retrogenix's plasma membrane protein library, first on 3500 proteins and second on an additional 993 proteins, with total number of proteins screened being 4493. A background screen was performed prior to the primary screen to detect the background level of binding of the test ligand Fc-GDF15 at 2, 5, and 20 ug/ml with blank slides coated with live HEK293 cells and detected by using an AlexaFluor647 anti-Fc antibody. In the primary screen, vectors encoding each full-length human plasma membrane protein in the library were arrayed in duplicates on Retrogenix's cell microarray slides (referred to as ‘slide-set’). Three replicate slide-set were used in the primary screen. Control expression vector (pIRES-hEGFR-IRES-ZsGreen1) was spotted in quadruplicate on every slide to ensure that a minimal threshold of transfection efficiency had been achieved or exceeded on every slide. HEK293 cells were used for reverse transfection in live conditions. The test ligand Fc-GDF15 was added at the concentration of 20 ug/ml to each slide set. After the addition of test ligand, cell fixation was performed and the AlexaFluor647 anti-Fc antibody was used for binding detection. Fluorescent images were analyzed using ImageQuant software (GE) and a protein ‘hit’ is defined as a duplicate spot showing a raised signal compared to background levels by visual inspection using the images gridded on the ImageQuant software. Hits identified in the primary screen were tested in a confirmation screen, where all vectors encoding the hits in at least one of the three replicate primary screening slide-sets were arrayed on new slides. Confirmation screening was performed similar to the primary screening, with the addition of control samples for binding Fc. Binding of cells overexpressing CD86 to human CTLA4 fused to human Fc, served as a positive control, and binding to Fc alone served as a negative control.

[2] = target: T2, GFRα1 (Retrogenix library, on HEK293 cells) (human, UniProt P56159 25-429)
T2 construct: whole, on cells
T2 sequence (looked up): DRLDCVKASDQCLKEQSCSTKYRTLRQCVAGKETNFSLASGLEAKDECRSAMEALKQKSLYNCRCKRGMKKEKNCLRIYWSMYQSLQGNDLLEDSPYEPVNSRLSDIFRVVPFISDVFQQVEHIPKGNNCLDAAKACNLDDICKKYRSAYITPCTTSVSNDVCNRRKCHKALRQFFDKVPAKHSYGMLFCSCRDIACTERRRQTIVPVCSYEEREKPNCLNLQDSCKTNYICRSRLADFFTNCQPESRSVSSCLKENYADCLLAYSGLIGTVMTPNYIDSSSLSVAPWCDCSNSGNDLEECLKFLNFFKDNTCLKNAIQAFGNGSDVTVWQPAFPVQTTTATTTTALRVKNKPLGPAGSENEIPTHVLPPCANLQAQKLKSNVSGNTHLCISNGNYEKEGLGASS
Protocol: as §1

[3] = target: T3, GFRα2 (Retrogenix library, on HEK293 cells) (human, UniProt O00451 22-444)
T3 construct: whole, on cells
T3 sequence (looked up): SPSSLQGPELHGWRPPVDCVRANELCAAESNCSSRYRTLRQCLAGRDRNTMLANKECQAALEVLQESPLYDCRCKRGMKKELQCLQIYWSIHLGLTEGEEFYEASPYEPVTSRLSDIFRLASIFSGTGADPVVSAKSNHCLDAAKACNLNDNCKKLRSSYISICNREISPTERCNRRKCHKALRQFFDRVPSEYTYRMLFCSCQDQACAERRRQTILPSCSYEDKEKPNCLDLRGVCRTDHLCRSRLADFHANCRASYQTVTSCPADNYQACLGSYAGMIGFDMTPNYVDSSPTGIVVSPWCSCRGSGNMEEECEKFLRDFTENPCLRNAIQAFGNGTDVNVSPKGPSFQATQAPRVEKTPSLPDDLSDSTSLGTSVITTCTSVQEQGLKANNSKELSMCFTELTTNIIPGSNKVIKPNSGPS
Protocol: as §1

[4] = target: T4, GFRα4 (Retrogenix library, on HEK293 cells) (human, UniProt Q9GZZ7 21-278)
T4 construct: whole, on cells
T4 sequence (looked up): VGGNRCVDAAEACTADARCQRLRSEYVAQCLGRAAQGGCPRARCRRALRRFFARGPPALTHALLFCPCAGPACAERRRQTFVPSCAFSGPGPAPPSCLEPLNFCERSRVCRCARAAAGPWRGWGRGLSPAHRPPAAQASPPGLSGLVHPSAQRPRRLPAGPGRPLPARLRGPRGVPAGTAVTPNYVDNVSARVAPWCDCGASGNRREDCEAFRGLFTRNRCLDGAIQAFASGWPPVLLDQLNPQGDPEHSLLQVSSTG
Protocol: as §1

Measured: binding result

B1: heterodimeric Fc-GDF15 fusion molecule (Fc fusion)
chain 1: CPPCPAPEAAGGPSVFLFPPKPKDTLMISRTPEVTCVVVDVSQEDPEVQFNWYVDGVEVHNAKTKPREEQFNSTYRVVSVLTVLHQDWLNGKEYKCKVSNKGLPSSIEKTISKAKGQPREPQVYTLPPSQEEMTKNQVSLSCAVKGFYPSDIAVEWESNGQPENNYKTTPPVLDSDGSFFLVSRLTVDKSRWQEGNVFSCSVMHEALHNHYTQKSLSLSLGKGSGGGARNGDHCPLGPGRCCRLHTVRASLEDLGWADWVLSPREVQVTMCIGACPSQFRAANMHAQIKTSLHRLKPDTVPAPCCVPASYNPMVLIQKTDTGVSLQTYDDLLAKDCHCI
chain 2: CPPCPAPEAAGGPSVFLFPPKPKDTLMISRTPEVTCVVVDVSQEDPEVQFNWYVDGVEVHNAKTKPREEQFNSTYRVVSVLTVLHQDWLNGKEYKCKVSNKGLPSSIEKTISKAKGQPREPQVYTLPPSQEEMTKNQVSLWCLVKGFYPSDIAVEWESNGQPENNYKTTPPVLDSDGSFFLYSRLTVDKSRWQEGNVFSCSVMHEALHNHYTQKSLSLSLGK
notes: also called Fc-GDF15 ligand
no binding (tested: 20 ug/ml): [1] | [2] | [3] | [4]
